Results published in US20230134571A1 (INTERNATIONAL AIDS VACCINE INITIATIVE, published 2023).

B1: ePGDM13 (antibody, V domains shown)
VH: QAQLVQSGPEVRKPGTSVKVSCKNPGNTLTTYDLHWVRQVPGQGLQWMGWISHEGDKKVIVERFKAKVTIDWDRSTNTAYLQLSGLTSEDTAVYYCAKGSKHRLRDYALYDEDGALNWAVDVDYLANLEFWGQGTAVTVSS
VL: DIVLTQSPLSLSVTPGESASISCKSSHSLQHGDRNNYLAWYVQKPGRSPQLLLDLASERASGVPDRFSGSGSEKDFTLKISRVETEDVGTYYCMQGRESPWTFGQGTKVDIK
B2: ePGDM5 (antibody, V domains shown)
VH: QAQLVQSGPEVRKPGTSVKVSCKNPGNTLTTYDLHWVRQVPGQGLQWMGWISHEGDKKVIVERFKAKVTIDWDRSTNTAYLQLSGLTSEDTAVYYCAKGSKHRLRDYALYDEDGALNWAVDVDYLANLEFWGQGTAVTVSS
VL: DFVLTQSPLSLSVTPGESASISCKSDHSLQHGDRNNYLAWYVQKPGRSPQLLIDLASERASGVPDRFSGSGSRKDFTLKIDRVEAEDVGTYYCMQGRESPWTFGQGTKVDIK
B3: PGDM1400 (antibody, V domains shown)
VH: QVHLTQSGPEVRKPGTSVKVSCKAPGNTLKTYDLHWVRSVPGQGLQWMGWISHEGDKKVIVERFKAKVTIDWDRSTNTAYLQLSGLTSGDTAVYYCAKGSKHRLRDYALYDDDGALNWAVDVDYLSNLEFWGQGTAVTVSS
VL: DFVLTQSPHSLSVTPGESASISCKSSHSLIHGDRNNYLAWYVQKPGRSPQLLIYLASSRASGVPDRFSGSGSDKDFTLKISRVETEDVGTYYCMQGRESPWTFGQGTKVDIK
B4: ePGDM9 (antibody, V domains shown)
VH: QAQLVQSGPEVRKPGTSVKVSCKNPGNTLTTYDLHWVRQVPGQGLQWMGWISHEGDKKVIVERFKAKVTIDWDRSTNTAYLQLSGLTSEDTAVYYCAKGSKHRLRDYALYDEDGALNWAVDVDYLANLEFWGQGTAVTVSS
VL: DIVLTQSPLSLSVTPGESASISCKSSQSLIHGDRNNYLAWYVQKPGRSPQLLIDLASERASGVPDRFSGSGSRKDFTLKISRVETEDVGTYYCMQGRESPWTFGQGTKVDIK

Tests used:
Assay in all cases: cell-based or functional assay
[1] = molecular target: HIV Env of isolate 6244_13_B5_4576 (clade B) (HIV)
[2] = molecular target: HIV Env of isolate T255-34 (clade AG) (HIV)
[3] = molecular target: HIV Env of isolate 1054_07_TC4_1499 (clade B) (HIV)
[4] = molecular target: HIV Env of isolate CNE52 (clade BC) (HIV)
[5] = molecular target: HIV Env of isolate MS208.A1 (clade A) (HIV)
[6] = molecular target: HIV Env of isolate CNE30 (clade BC) (HIV)
[7] = molecular target: HIV Env of isolate BF1266.431a (clade C) (HIV)
[8] = molecular target: HIV Env of isolate C4118.c09 (clade AE) (HIV)
[9] = molecular target: HIV Env of isolate CNE58 (clade BC) (HIV)
[10] = molecular target: HIV Env of isolate CNE53 (clade BC) (HIV)
[11] = molecular target: HIV Env of isolate HIV-16055-2.3 (clade C) (HIV)
[12] = molecular target: HIV Env of isolate 0330.v4.c3 (clade A) (HIV)
[13] = molecular target: HIV Env of isolate 6535.3 (clade B) (HIV)
[14] = molecular target: HIV Env of isolate 620345.c01 (clade AE) (HIV)
[15] = molecular target: HIV Env of isolate R2184.c04 (clade AE) (HIV)
[16] = molecular target: HIV Env of isolate ZM109F.PB4 (clade C) (HIV)
[17] = molecular target: HIV Env of isolate HIV-0013095-2.11 (clade C) (HIV)
[18] = molecular target: HIV Env of isolate P0402_C2_11 (clade G) (HIV)
[19] = molecular target: HIV Env of isolate 3016.v5.c45 (clade D) (HIV)
[20] = molecular target: HIV Env of isolate CNE8 (clade AE) (HIV)
[21] = molecular target: HIV Env of isolate HIV-16845-2.22 (clade C) (HIV)
[22] = molecular target: HIV Env of isolate WITO4160.33 (clade B) (HIV)
[23] = molecular target: HIV Env of isolate X2088_C9 (clade G) (HIV)
[24] = molecular target: HIV Env of isolate ZM135M.PL10a (clade C) (HIV)

| Binder | IC50 (µg/ml) with constrains [1] [µg/mL] | IC50 (µg/ml) with constrains [2] [µg/mL] | IC80 (µg/ml) with constrains [2] [µg/mL] | IC50 (µg/ml) with constrains [3] [µg/mL] | IC50 (µg/ml) with constrains [4] [µg/mL] | IC50 (µg/ml) with constrains [5] [µg/mL] | IC80 (µg/ml) with constrains [5] [µg/mL] | IC50 (µg/ml) with constrains [6] [µg/mL] | IC50 (µg/ml) with constrains [7] [µg/mL] | IC80 (µg/ml) with constrains [8] [µg/mL] | IC50 (µg/ml) with constrains [9] [µg/mL] | IC50 (µg/ml) with constrains [10] [µg/mL] | IC50 (µg/ml) with constrains [11] [µg/mL] | IC50 (µg/ml) with constrains [12] [µg/mL] | IC80 (µg/ml) with constrains [12] [µg/mL] | IC50 (µg/ml) with constrains [13] [µg/mL] | IC50 (µg/ml) with constrains [14] [µg/mL] | IC80 (µg/ml) with constrains [14] [µg/mL] | IC50 (µg/ml) with constrains [15] [µg/mL] | IC80 (µg/ml) with constrains [15] [µg/mL] | also measured |
| --- | --- | --- | --- | --- | --- | --- | --- | --- | --- | --- | --- | --- | --- | --- | --- | --- | --- | --- | --- | --- | --- |
| B1 | 30.8 | 0.007 | 0.029 | > 100 | 2.83 | 0.027 | 0.109 | > 100 | 0.004 | 0.005 | 0.003 | 0.015 | 0.003 | 0.002 | 0.008 | > 100 | > 100 | > 100 | 0.005 | 0.019 | IC50 (µg/ml) with constrains [8]: 0.001 µg/mL; IC50 (µg/ml) with constrains [16]: 0.049 µg/mL; IC50 (µg/ml) with constrains [17]: > 100 µg/mL; IC50 (µg/ml) with constrains [18]: 0.001 µg/mL; IC50 (µg/ml) with constrains [19]: > 100 µg/mL; IC50 (µg/ml) with constrains [20]: 0.005 µg/mL; IC80 (µg/ml) with constrains [20]: 0.022 µg/mL; IC50 (µg/ml) with constrains [21]: > 100 µg/mL; IC50 (µg/ml) with constrains [22]: 0.003 µg/mL; IC50 (µg/ml) with constrains [23]: 64.1 µg/mL; IC50 (µg/ml) with constrains [24]: > 100 µg/mL |
| B2 | 18.9 | 0.018 | 0.071 | > 100 | 6.14 | 0.007 | 0.029 | > 100 | 0.004 | 0.002 | 0.004 | 0.02 | 0.002 | 0.003 | 0.01 | 98.2 | > 100 | > 100 | 0.004 | 0.017 | IC50 (µg/ml) with constrains [16]: 0.03 µg/mL; IC50 (µg/ml) with constrains [17]: > 100 µg/mL; IC50 (µg/ml) with constrains [18]: 0.004 µg/mL; IC50 (µg/ml) with constrains [19]: > 100 µg/mL; IC50 (µg/ml) with constrains [20]: 0.001 µg/mL; IC80 (µg/ml) with constrains [20]: 0.003 µg/mL; IC50 (µg/ml) with constrains [21]: > 100 µg/mL; IC50 (µg/ml) with constrains [22]: 0.004 µg/mL; IC50 (µg/ml) with constrains [23]: 28.6 µg/mL; IC50 (µg/ml) with constrains [24]: > 100 µg/mL |
| B3 | > 100 | 0.046 | 0.182 | > 100 | > 100 | 0.01 | 0.041 | > 100 | 0.006 | 0.006 | 0.003 | 0.026 | 0.003 | 0.004 | 0.016 | > 100 | > 100 | > 100 | 0.006 | 0.022 | IC50 (µg/ml) with constrains [8]: 0.002 µg/mL; IC50 (µg/ml) with constrains [16]: 0.098 µg/mL; IC50 (µg/ml) with constrains [17]: > 100 µg/mL; IC50 (µg/ml) with constrains [18]: 0.007 µg/mL; IC50 (µg/ml) with constrains [19]: > 100 µg/mL; IC50 (µg/ml) with constrains [20]: 0.001 µg/mL; IC80 (µg/ml) with constrains [20]: 0.003 µg/mL; IC50 (µg/ml) with constrains [21]: > 100 µg/mL; IC50 (µg/ml) with constrains [22]: 0.003 µg/mL; IC50 (µg/ml) with constrains [23]: > 100 µg/mL; IC50 (µg/ml) with constrains [24]: > 100 µg/mL |
| B4 | 12.6 | 0.002 | 0.008 | > 100 | 1.85 | 0.009 | 0.036 | > 100 | 0.002 | 0.005 | 0.002 | 0.007 | 0.001 | 0.003 | 0.01 | 57.8 | > 100 | > 100 | 0.003 | 0.011 | IC50 (µg/ml) with constrains [8]: 0.001 µg/mL; IC50 (µg/ml) with constrains [16]: 0.027 µg/mL; IC50 (µg/ml) with constrains [17]: > 100 µg/mL; IC50 (µg/ml) with constrains [18]: 0.001 µg/mL; IC50 (µg/ml) with constrains [19]: > 100 µg/mL; IC50 (µg/ml) with constrains [20]: 0.001 µg/mL; IC80 (µg/ml) with constrains [20]: 0.002 µg/mL; IC50 (µg/ml) with constrains [21]: > 100 µg/mL; IC50 (µg/ml) with constrains [22]: 0.002 µg/mL; IC50 (µg/ml) with constrains [23]: > 100 µg/mL; IC50 (µg/ml) with constrains [24]: > 100 µg/mL |
